Measured values taken from patent publication US20250376539A1 (KIRA PHARMACEUTICALS SUZHOU, published 2025).
One block for each binder: values may come before it.

Legend:
[1] = molecular target: T1, recombinant cynomolgus (cyno) complement C2 (XP_005553508.1), C-terminal 6His-tag, made in house (CHO cell … (cynomolgus monkey (Macaca fascicularis), UniProt P06681 21-752 (human entry))); assay: binding kinetics (BLI presumed)
T1 construct: also called cyno C2; Cyno C2
T1 chain: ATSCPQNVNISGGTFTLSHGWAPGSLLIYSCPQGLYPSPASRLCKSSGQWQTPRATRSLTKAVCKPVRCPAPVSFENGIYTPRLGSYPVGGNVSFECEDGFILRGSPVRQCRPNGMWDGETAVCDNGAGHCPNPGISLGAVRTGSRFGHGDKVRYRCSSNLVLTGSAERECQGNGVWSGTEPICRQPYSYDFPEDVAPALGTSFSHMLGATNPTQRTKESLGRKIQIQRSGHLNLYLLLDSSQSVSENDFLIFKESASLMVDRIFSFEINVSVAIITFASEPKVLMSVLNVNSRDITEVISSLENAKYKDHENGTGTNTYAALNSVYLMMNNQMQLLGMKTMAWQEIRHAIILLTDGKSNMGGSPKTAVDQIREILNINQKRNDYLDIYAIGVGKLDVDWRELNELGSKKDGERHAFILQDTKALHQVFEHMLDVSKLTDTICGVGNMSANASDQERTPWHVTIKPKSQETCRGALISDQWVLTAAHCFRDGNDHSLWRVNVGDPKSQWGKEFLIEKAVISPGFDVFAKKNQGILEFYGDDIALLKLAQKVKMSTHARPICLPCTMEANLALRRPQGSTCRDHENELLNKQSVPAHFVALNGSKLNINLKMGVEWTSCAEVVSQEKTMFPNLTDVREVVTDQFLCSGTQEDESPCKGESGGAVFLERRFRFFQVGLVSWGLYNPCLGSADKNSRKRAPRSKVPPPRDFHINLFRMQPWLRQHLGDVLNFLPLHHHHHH

[2] = molecular target: T1, recombinant cynomolgus (cyno) …; assay: BLI (Gator), antibody on probe; 600 s association at pH 7.4, 600 s dissociation at pH 7.4
Description: (§1) The histidine mutant constructs in Table 4 were tested for their pH-dependent dissociation from human C2. Probe-immobilized anti-C2 antibodies were incubated with C2 at pH 7.4 for 600s, followed by a 600s dissociation period in K Buffer at pH 7.4 or pH 5.8. The data were processed and analyzed by the Gator evaluation software.
(§2) Non-fusion mAb were used for comparison.

[3] = molecular target: T2, recombinant human complement C2 (NP_000054.2), C-terminal 6His-tag, made in house (CHO cell expression) (human, UniProt P06681 21-752); assay: as above
T2 construct: a linker before the tag is not described; also called human C2; Human C2
T2 sequence: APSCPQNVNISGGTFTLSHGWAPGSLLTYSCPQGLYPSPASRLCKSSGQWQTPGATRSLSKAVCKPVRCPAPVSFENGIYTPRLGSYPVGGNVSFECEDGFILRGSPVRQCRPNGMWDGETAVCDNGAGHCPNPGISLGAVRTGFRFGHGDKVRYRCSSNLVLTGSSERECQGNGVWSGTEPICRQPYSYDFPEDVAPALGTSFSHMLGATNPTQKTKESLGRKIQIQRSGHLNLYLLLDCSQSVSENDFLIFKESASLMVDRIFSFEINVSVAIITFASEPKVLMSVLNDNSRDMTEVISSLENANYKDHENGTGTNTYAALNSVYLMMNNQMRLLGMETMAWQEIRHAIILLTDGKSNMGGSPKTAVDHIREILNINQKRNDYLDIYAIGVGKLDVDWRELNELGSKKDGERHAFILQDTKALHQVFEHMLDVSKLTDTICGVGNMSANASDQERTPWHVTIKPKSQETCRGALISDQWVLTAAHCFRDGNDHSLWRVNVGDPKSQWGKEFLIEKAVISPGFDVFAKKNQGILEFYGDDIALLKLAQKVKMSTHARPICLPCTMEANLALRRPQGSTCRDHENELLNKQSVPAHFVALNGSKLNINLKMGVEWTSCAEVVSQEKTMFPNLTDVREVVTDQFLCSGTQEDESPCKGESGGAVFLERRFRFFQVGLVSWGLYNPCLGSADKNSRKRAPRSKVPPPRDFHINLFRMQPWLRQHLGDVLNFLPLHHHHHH
Description: as §1, §2

[4] = molecular target: T1, recombinant cynomolgus (cyno) …; assay: ELISA
[5] = molecular target: T2, recombinant human complement C2 …; assay: ELISA
[6] = molecular target: T3, recombinant human C2a, C-terminal 6His-tag, made in house (CHO cell expression) (human, UniProt P06681 244-752); assay: ELISA on human C2a, OD450nm against log Ab conc. (nmol/L)
T3 sequence: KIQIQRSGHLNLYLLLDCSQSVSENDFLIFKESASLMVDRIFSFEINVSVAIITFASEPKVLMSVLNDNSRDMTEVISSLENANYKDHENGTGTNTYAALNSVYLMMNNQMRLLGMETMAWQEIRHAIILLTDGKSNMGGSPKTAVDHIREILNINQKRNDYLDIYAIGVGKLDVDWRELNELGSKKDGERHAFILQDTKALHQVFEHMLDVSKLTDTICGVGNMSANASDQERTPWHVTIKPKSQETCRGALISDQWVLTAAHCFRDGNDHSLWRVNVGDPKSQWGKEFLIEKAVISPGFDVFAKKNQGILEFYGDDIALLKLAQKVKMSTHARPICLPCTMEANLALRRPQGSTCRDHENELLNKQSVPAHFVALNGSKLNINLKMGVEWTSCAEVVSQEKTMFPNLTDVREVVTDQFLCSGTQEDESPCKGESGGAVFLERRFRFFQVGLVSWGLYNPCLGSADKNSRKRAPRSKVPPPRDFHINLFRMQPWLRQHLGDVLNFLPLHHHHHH

[7] = molecular target: T2, recombinant human complement C2 …; assay: BLI (Gator); ratio of dissociation at pH 5.8 to pH 7.4
Description: as §1

Kd [1]: 0.304 nM
koff [1]: 5.89e-05 s⁻¹
kon [1]: 194000 M⁻¹ s⁻¹
Dissociation (%) pH 7.4 [2]: 4.81%
Dissociation (%) pH 7.4 [3]: 3.15%
EC50 [4]: 0.0794 nM
EC50 [5]: 0.0474 nM
B1: anti-C2 antibody 69.44 (antibody, IgG4, V domains shown)
VH: QVQLVQSGAEVKKPGASVKVSCKASGYSFTTYYMYWVRQAPGQGLEWMGIITPSGGSTTYAQKFQDRVTMTRDASTTTVYMELSSLRSEDTAVYYCARGYEGSYGFDHWGQGTLVTVSS
VL: SYELTQPPSVSLSPGQTASITCSGDKLGNKYTCWYQQKPGQSPVLVIYQDNKRPSGIPERFSGSNSGNTATLTISGTQAMDEADYYCQTWDSSTAVFGGGTKLTVL
notes: Recombinant

binding result [6]: no binding (tested: 100 nmol/L)
Kd [1]: 0.126 nM
koff [1]: 5.82e-05 s⁻¹
kon [1]: 461000 M⁻¹ s⁻¹
Dissociation (%) pH 7.4 [2]: 5.37%
Dissociation (%) pH 7.4 [3]: 5.27%
EC50 [4]: 0.0478 nM
EC50 [5]: 0.0504 nM
Fold dissociation pH 5.8/pH 7.4 [7]: 2.3 fold
B2: anti-C2 antibody 3.2 (antibody, IgG4, V domains shown)
VH: EVQLLESGGGLVQPGGSLRLSCAASGFTFRHYAMSWVRQAPGKGLEWVSLISGSGASTFYADSVKGRFTISRDNSENMLYLQMNSLRAEDTAVYYCAKDSLAVAGSEYFQHWGQGTLVTVSS
VL: SYVLTQAPSVSVAPGQTARITCGGNYFGGKSVHWYQQRPGQAPVLVVYDDSDRPSGIPERFSGSKSGNTATLAISRVEAGDEAAYYCQVYDTSSDHWVFGGGTKLTVL
notes: Recombinant; also called WT; "WT" 3.2
